From article PMC10353453 (Molecular cell, 2022)

Legend:
[1] = target: the molecule itself; test: cross-linking
[2] = target: the molecule itself; test: mass photometry
[3] = target: the molecule itself; test: SAXS

Row | Protein | stoichiometry N [2] | other results
1 | NADK2 expressed in HEK293E cells (full-length human NADK2 cDNA with a C-terminal FLAG-tag) (enzyme, UniProt Q4G0N4 63-442, looked up) DGGFRPSRVVVVAKTTRYEFEQQRYRYAELSEEDLKQLLALKGSSYSGLLERHHIHTKNVEHIIDSLRNEGIEVRLVKRREYDEETVRWADAVIAAGGDGTMLLAASKVLDRLKPVIGVNTDPERSEGHLCLPVRYTHSFPEALQKFYRGEFRWLWRQRIRLYLEGTGINPVPVDLHEQQLSLNQHNRALNIERAHDERSEASGPQLLPVRALNEVFIGESLSSRASYYEISVDDGPWEKQKSSGLNLCTGTGSKAWSFNINRVATQAVEDVLNIAKRQGNLSLPLNRELVEKVTNEYNESLLYSPEEPKILFSIREPIANRVFSSSRQRCFSSKVCVRSRCWDACMVVDGGTSFEFNDGAIASMMINKEDELRTVLLEQ |  | stoichiometry N [1]: 2
2 | His-NADK2^V334R (enzyme, human, UniProt Q4G0N4 61-442, looked up) RADGGFRPSRVVVVAKTTRYEFEQQRYRYAELSEEDLKQLLALKGSSYSGLLERHHIHTKNVEHIIDSLRNEGIEVRLVKRREYDEETVRWADAVIAAGGDGTMLLAASKVLDRLKPVIGVNTDPERSEGHLCLPVRYTHSFPEALQKFYRGEFRWLWRQRIRLYLEGTGINPVPVDLHEQQLSLNQHNRALNIERAHDERSEASGPQLLPVRALNEVFIGESLSSRASYYEISVDDGPWEKQKSSGLNLCTGTGSKAWSFNINRVATQAVEDRLNIAKRQGNLSLPLNRELVEKVTNEYNESLLYSPEEPKILFSIREPIANRVFSSSRQRCFSSKVCVRSRCWDACMVVDGGTSFEFNDGAIASMMINKEDELRTVLLEQ | 2 | 
3 | His-NADK2^K304Q (enzyme, human, UniProt Q4G0N4 61-442, looked up) RADGGFRPSRVVVVAKTTRYEFEQQRYRYAELSEEDLKQLLALKGSSYSGLLERHHIHTKNVEHIIDSLRNEGIEVRLVKRREYDEETVRWADAVIAAGGDGTMLLAASKVLDRLKPVIGVNTDPERSEGHLCLPVRYTHSFPEALQKFYRGEFRWLWRQRIRLYLEGTGINPVPVDLHEQQLSLNQHNRALNIERAHDERSEASGPQLLPVRALNEVFIGESLSSRASYYEISVDDGPWEKQQSSGLNLCTGTGSKAWSFNINRVATQAVEDVLNIAKRQGNLSLPLNRELVEKVTNEYNESLLYSPEEPKILFSIREPIANRVFSSSRQRCFSSKVCVRSRCWDACMVVDGGTSFEFNDGAIASMMINKEDELRTVLLEQ | 2 | 
4 | His-NADK2^S188A (enzyme, human, UniProt Q4G0N4 61-442, looked up) RADGGFRPSRVVVVAKTTRYEFEQQRYRYAELSEEDLKQLLALKGSSYSGLLERHHIHTKNVEHIIDSLRNEGIEVRLVKRREYDEETVRWADAVIAAGGDGTMLLAASKVLDRLKPVIGVNTDPERAEGHLCLPVRYTHSFPEALQKFYRGEFRWLWRQRIRLYLEGTGINPVPVDLHEQQLSLNQHNRALNIERAHDERSEASGPQLLPVRALNEVFIGESLSSRASYYEISVDDGPWEKQKSSGLNLCTGTGSKAWSFNINRVATQAVEDVLNIAKRQGNLSLPLNRELVEKVTNEYNESLLYSPEEPKILFSIREPIANRVFSSSRQRCFSSKVCVRSRCWDACMVVDGGTSFEFNDGAIASMMINKEDELRTVLLEQ | 2 | 
5 | His-NADK2^K76Q (enzyme, human, UniProt Q4G0N4 61-442, looked up) RADGGFRPSRVVVVAQTTRYEFEQQRYRYAELSEEDLKQLLALKGSSYSGLLERHHIHTKNVEHIIDSLRNEGIEVRLVKRREYDEETVRWADAVIAAGGDGTMLLAASKVLDRLKPVIGVNTDPERSEGHLCLPVRYTHSFPEALQKFYRGEFRWLWRQRIRLYLEGTGINPVPVDLHEQQLSLNQHNRALNIERAHDERSEASGPQLLPVRALNEVFIGESLSSRASYYEISVDDGPWEKQKSSGLNLCTGTGSKAWSFNINRVATQAVEDVLNIAKRQGNLSLPLNRELVEKVTNEYNESLLYSPEEPKILFSIREPIANRVFSSSRQRCFSSKVCVRSRCWDACMVVDGGTSFEFNDGAIASMMINKEDELRTVLLEQ | 2 | 
6 | human NADK2 (aa 61–442 with an N terminus His-tag) (enzyme, UniProt Q4G0N4 61-442, looked up) RADGGFRPSRVVVVAKTTRYEFEQQRYRYAELSEEDLKQLLALKGSSYSGLLERHHIHTKNVEHIIDSLRNEGIEVRLVKRREYDEETVRWADAVIAAGGDGTMLLAASKVLDRLKPVIGVNTDPERSEGHLCLPVRYTHSFPEALQKFYRGEFRWLWRQRIRLYLEGTGINPVPVDLHEQQLSLNQHNRALNIERAHDERSEASGPQLLPVRALNEVFIGESLSSRASYYEISVDDGPWEKQKSSGLNLCTGTGSKAWSFNINRVATQAVEDVLNIAKRQGNLSLPLNRELVEKVTNEYNESLLYSPEEPKILFSIREPIANRVFSSSRQRCFSSKVCVRSRCWDACMVVDGGTSFEFNDGAIASMMINKEDELRTVLLEQ |  | stoichiometry N [3]: 2
7 | His-NADK2^R378Q (enzyme, human, UniProt Q4G0N4 61-442, looked up) RADGGFRPSRVVVVAKTTRYEFEQQRYRYAELSEEDLKQLLALKGSSYSGLLERHHIHTKNVEHIIDSLRNEGIEVRLVKRREYDEETVRWADAVIAAGGDGTMLLAASKVLDRLKPVIGVNTDPERSEGHLCLPVRYTHSFPEALQKFYRGEFRWLWRQRIRLYLEGTGINPVPVDLHEQQLSLNQHNRALNIERAHDERSEASGPQLLPVRALNEVFIGESLSSRASYYEISVDDGPWEKQKSSGLNLCTGTGSKAWSFNINRVATQAVEDVLNIAKRQGNLSLPLNRELVEKVTNEYNESLLYSPEEPKILFSIQEPIANRVFSSSRQRCFSSKVCVRSRCWDACMVVDGGTSFEFNDGAIASMMINKEDELRTVLLEQ | 2 | 
8 | His-NADK2^Δ231–266 (aa 61–442) (enzyme, human, UniProt Q4G0N4 61-442, looked up) RADGGFRPSRVVVVAKTTRYEFEQQRYRYAELSEEDLKQLLALKGSSYSGLLERHHIHTKNVEHIIDSLRNEGIEVRLVKRREYDEETVRWADAVIAAGGDGTMLLAASKVLDRLKPVIGVNTDPERSEGHLCLPVRYTHSFPEALQKFYRGEFRWLWRQRIRLYLEGTGPQLLPVRALNEVFIGESLSSRASYYEISVDDGPWEKQKSSGLNLCTGTGSKAWSFNINRVATQAVEDVLNIAKRQGNLSLPLNRELVEKVTNEYNESLLYSPEEPKILFSIREPIANRVFSSSRQRCFSSKVCVRSRCWDACMVVDGGTSFEFNDGAIASMMINKEDELRTVLLEQ | 2 | 
9 | His-NADK2^Δ78–114 (aa 61–442) (enzyme, human, UniProt Q4G0N4 61-442, looked up) RADGGFRPSRVVVVAKTHHIHTKNVEHIIDSLRNEGIEVRLVKRREYDEETVRWADAVIAAGGDGTMLLAASKVLDRLKPVIGVNTDPERSEGHLCLPVRYTHSFPEALQKFYRGEFRWLWRQRIRLYLEGTGINPVPVDLHEQQLSLNQHNRALNIERAHDERSEASGPQLLPVRALNEVFIGESLSSRASYYEISVDDGPWEKQKSSGLNLCTGTGSKAWSFNINRVATQAVEDVLNIAKRQGNLSLPLNRELVEKVTNEYNESLLYSPEEPKILFSIREPIANRVFSSSRQRCFSSKVCVRSRCWDACMVVDGGTSFEFNDGAIASMMINKEDELRTVLLEQ | 2 | 
